T1: TNFR1 (Homo sapiens, UniProt P19438)
T1 chain: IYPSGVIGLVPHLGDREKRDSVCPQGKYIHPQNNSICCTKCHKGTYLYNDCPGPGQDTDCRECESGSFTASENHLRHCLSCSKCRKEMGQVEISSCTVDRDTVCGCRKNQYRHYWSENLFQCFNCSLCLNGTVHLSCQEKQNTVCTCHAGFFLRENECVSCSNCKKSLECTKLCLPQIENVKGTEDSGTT


Target: T1, TNFR1
Assay: yeast display SC50

Row | Binder | apparent Kd (screen) [nM]
1 | L75I (designed binder) MTLQELLREEALRRAEAEAFRYALELLAEKFPEQKEYLLDLAEEIESQIRSLSGVDVEDVRKFLDKEWAWVKELIAEHPAELAEVEAARAARLAELRAEVEAKVAA | 0.79
2 | Q34V (designed binder) MTLQELLREEALRRAEAEAFRYALELLAEKFPEVKEYLLDLAEEIESQIRSLSGVDVEDVRKFLDKEWAWVKELLAEHPAELAEVEAARAARLAELRAEVEAKVAA | 0.405
3 | R61Q (designed binder) MTLQELLREEALRRAEAEAFRYALELLAEKFPEQKEYLLDLAEEIESQIRSLSGVDVEDVQKFLDKEWAWVKELLAEHPAELAEVEAARAARLAELRAEVEAKVAA | 0.539
4 | V55P (designed binder) MTLQELLREEALRRAEAEAFRYALELLAEKFPEQKEYLLDLAEEIESQIRSLSGPDVEDVRKFLDKEWAWVKELLAEHPAELAEVEAARAARLAELRAEVEAKVAA | 0.653
5 | L26D (designed binder) MTLQELLREEALRRAEAEAFRYALEDLAEKFPEQKEYLLDLAEEIESQIRSLSGVDVEDVRKFLDKEWAWVKELLAEHPAELAEVEAARAARLAELRAEVEAKVAA | 0.956
6 | D65M (designed binder) MTLQELLREEALRRAEAEAFRYALELLAEKFPEQKEYLLDLAEEIESQIRSLSGVDVEDVRKFLMKEWAWVKELLAEHPAELAEVEAARAARLAELRAEVEAKVAA | 0.718
7 | L39Y (designed binder) MTLQELLREEALRRAEAEAFRYALELLAEKFPEQKEYLYDLAEEIESQIRSLSGVDVEDVRKFLDKEWAWVKELLAEHPAELAEVEAARAARLAELRAEVEAKVAA | 1.69
8 | Q48G (designed binder) MTLQELLREEALRRAEAEAFRYALELLAEKFPEQKEYLLDLAEEIESGIRSLSGVDVEDVRKFLDKEWAWVKELLAEHPAELAEVEAARAARLAELRAEVEAKVAA | 0.718
9 | W70P (designed binder) MTLQELLREEALRRAEAEAFRYALELLAEKFPEQKEYLLDLAEEIESQIRSLSGVDVEDVRKFLDKEWAPVKELLAEHPAELAEVEAARAARLAELRAEVEAKVAA | 11.4
10 | E99V (designed binder) MTLQELLREEALRRAEAEAFRYALELLAEKFPEQKEYLLDLAEEIESQIRSLSGVDVEDVRKFLDKEWAWVKELLAEHPAELAEVEAARAARLAELRAVVEAKVAA | 0.446
11 | E99S (designed binder) MTLQELLREEALRRAEAEAFRYALELLAEKFPEQKEYLLDLAEEIESQIRSLSGVDVEDVRKFLDKEWAWVKELLAEHPAELAEVEAARAARLAELRASVEAKVAA | 0.956
12 | L6K (designed binder) MTLQEKLREEALRRAEAEAFRYALELLAEKFPEQKEYLLDLAEEIESQIRSLSGVDVEDVRKFLDKEWAWVKELLAEHPAELAEVEAARAARLAELRAEVEAKVAA | 7.07
13 | A83G (designed binder) MTLQELLREEALRRAEAEAFRYALELLAEKFPEQKEYLLDLAEEIESQIRSLSGVDVEDVRKFLDKEWAWVKELLAEHPAELGEVEAARAARLAELRAEVEAKVAA | 0.539
14 | E46H (designed binder) MTLQELLREEALRRAEAEAFRYALELLAEKFPEQKEYLLDLAEEIHSQIRSLSGVDVEDVRKFLDKEWAWVKELLAEHPAELAEVEAARAARLAELRAEVEAKVAA | 0.539
15 | H78N (designed binder) MTLQELLREEALRRAEAEAFRYALELLAEKFPEQKEYLLDLAEEIESQIRSLSGVDVEDVRKFLDKEWAWVKELLAENPAELAEVEAARAARLAELRAEVEAKVAA | 0.539
16 | S47C (designed binder) MTLQELLREEALRRAEAEAFRYALELLAEKFPEQKEYLLDLAEEIECQIRSLSGVDVEDVRKFLDKEWAWVKELLAEHPAELAEVEAARAARLAELRAEVEAKVAA | 0.718
17 | K35G (designed binder) MTLQELLREEALRRAEAEAFRYALELLAEKFPEQGEYLLDLAEEIESQIRSLSGVDVEDVRKFLDKEWAWVKELLAEHPAELAEVEAARAARLAELRAEVEAKVAA | 0.49

Continued, values first:

Row | apparent Kd (screen) [nM] | Binder
18 | 0.593 | V104N (designed binder) MTLQELLREEALRRAEAEAFRYALELLAEKFPEQKEYLLDLAEEIESQIRSLSGVDVEDVRKFLDKEWAWVKELLAEHPAELAEVEAARAARLAELRAEVEAKNAA
19 | 0.49 | E33H (designed binder) MTLQELLREEALRRAEAEAFRYALELLAEKFPHQKEYLLDLAEEIESQIRSLSGVDVEDVRKFLDKEWAWVKELLAEHPAELAEVEAARAARLAELRAEVEAKVAA
20 | 0.539 | E95T (designed binder) MTLQELLREEALRRAEAEAFRYALELLAEKFPEQKEYLLDLAEEIESQIRSLSGVDVEDVRKFLDKEWAWVKELLAEHPAELAEVEAARAARLATLRAEVEAKVAA
21 | 1.69 | S51G (designed binder) MTLQELLREEALRRAEAEAFRYALELLAEKFPEQKEYLLDLAEEIESQIRGLSGVDVEDVRKFLDKEWAWVKELLAEHPAELAEVEAARAARLAELRAEVEAKVAA
22 | 0.653 | A106V (designed binder) MTLQELLREEALRRAEAEAFRYALELLAEKFPEQKEYLLDLAEEIESQIRSLSGVDVEDVRKFLDKEWAWVKELLAEHPAELAEVEAARAARLAELRAEVEAKVAV
23 | 0.49 | E101G (designed binder) MTLQELLREEALRRAEAEAFRYALELLAEKFPEQKEYLLDLAEEIESQIRSLSGVDVEDVRKFLDKEWAWVKELLAEHPAELAEVEAARAARLAELRAEVGAKVAA
24 | 0.539 | A80F (designed binder) MTLQELLREEALRRAEAEAFRYALELLAEKFPEQKEYLLDLAEEIESQIRSLSGVDVEDVRKFLDKEWAWVKELLAEHPFELAEVEAARAARLAELRAEVEAKVAA
25 | 0.653 | S47L (designed binder) MTLQELLREEALRRAEAEAFRYALELLAEKFPEQKEYLLDLAEEIELQIRSLSGVDVEDVRKFLDKEWAWVKELLAEHPAELAEVEAARAARLAELRAEVEAKVAA
26 | 3.99 | L64P (designed binder) MTLQELLREEALRRAEAEAFRYALELLAEKFPEQKEYLLDLAEEIESQIRSLSGVDVEDVRKFPDKEWAWVKELLAEHPAELAEVEAARAARLAELRAEVEAKVAA
27 | 0.653 | D59V (designed binder) MTLQELLREEALRRAEAEAFRYALELLAEKFPEQKEYLLDLAEEIESQIRSLSGVDVEVVRKFLDKEWAWVKELLAEHPAELAEVEAARAARLAELRAEVEAKVAA
28 | 0.593 | A91T (designed binder) MTLQELLREEALRRAEAEAFRYALELLAEKFPEQKEYLLDLAEEIESQIRSLSGVDVEDVRKFLDKEWAWVKELLAEHPAELAEVEAARATRLAELRAEVEAKVAA
29 | 0.49 | E58M (designed binder) MTLQELLREEALRRAEAEAFRYALELLAEKFPEQKEYLLDLAEEIESQIRSLSGVDVMDVRKFLDKEWAWVKELLAEHPAELAEVEAARAARLAELRAEVEAKVAA
30 | 0.653 | Y22G (designed binder) MTLQELLREEALRRAEAEAFRGALELLAEKFPEQKEYLLDLAEEIESQIRSLSGVDVEDVRKFLDKEWAWVKELLAEHPAELAEVEAARAARLAELRAEVEAKVAA
31 | 2.73 | G54W (designed binder) MTLQELLREEALRRAEAEAFRYALELLAEKFPEQKEYLLDLAEEIESQIRSLSWVDVEDVRKFLDKEWAWVKELLAEHPAELAEVEAARAARLAELRAEVEAKVAA
32 | 0.539 | E29Q (designed binder) MTLQELLREEALRRAEAEAFRYALELLAQKFPEQKEYLLDLAEEIESQIRSLSGVDVEDVRKFLDKEWAWVKELLAEHPAELAEVEAARAARLAELRAEVEAKVAA
33 | 0.718 | L26K (designed binder) MTLQELLREEALRRAEAEAFRYALEKLAEKFPEQKEYLLDLAEEIESQIRSLSGVDVEDVRKFLDKEWAWVKELLAEHPAELAEVEAARAARLAELRAEVEAKVAA
34 | 0.593 | L26F (designed binder) MTLQELLREEALRRAEAEAFRYALEFLAEKFPEQKEYLLDLAEEIESQIRSLSGVDVEDVRKFLDKEWAWVKELLAEHPAELAEVEAARAARLAELRAEVEAKVAA
35 | 12.5 | L7Y (designed binder) MTLQELYREEALRRAEAEAFRYALELLAEKFPEQKEYLLDLAEEIESQIRSLSGVDVEDVRKFLDKEWAWVKELLAEHPAELAEVEAARAARLAELRAEVEAKVAA

From paper PMC12416549 (2024)
